Data as given in paper PMC5389562.

Biological target: T1, mCherry-U2AF35 (UniProt Q01081)
T1 sequence: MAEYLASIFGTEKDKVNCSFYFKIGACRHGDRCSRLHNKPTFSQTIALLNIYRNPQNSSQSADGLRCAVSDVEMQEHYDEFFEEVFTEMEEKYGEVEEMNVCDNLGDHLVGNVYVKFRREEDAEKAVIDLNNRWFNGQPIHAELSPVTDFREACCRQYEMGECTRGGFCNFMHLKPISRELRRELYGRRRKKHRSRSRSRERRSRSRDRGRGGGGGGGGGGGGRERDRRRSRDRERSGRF
Assay: single-molecule colocalization/bleaching
Details: 5' GMPS; HEK293T nuclear extract expressing fusion proteins, preincubated 15 min with ATP/phosphocreatine or ATP-depleted at 30 C; pre-mRNA 62.5 nM; +ATP reactions …

## GloC pre-mRNA
  binding signal (% RNA colocalized): 20
